Where two headings read alike, the source gives them in different places.
Experiments:
Assay in all cases: fluorescence anisotropy
rGyr_hel K106Q = biological target: T1, rGyr_hel K106Q (Thermotoga maritima, UniProt O51934 59-541, K106Q)
T1 sequence: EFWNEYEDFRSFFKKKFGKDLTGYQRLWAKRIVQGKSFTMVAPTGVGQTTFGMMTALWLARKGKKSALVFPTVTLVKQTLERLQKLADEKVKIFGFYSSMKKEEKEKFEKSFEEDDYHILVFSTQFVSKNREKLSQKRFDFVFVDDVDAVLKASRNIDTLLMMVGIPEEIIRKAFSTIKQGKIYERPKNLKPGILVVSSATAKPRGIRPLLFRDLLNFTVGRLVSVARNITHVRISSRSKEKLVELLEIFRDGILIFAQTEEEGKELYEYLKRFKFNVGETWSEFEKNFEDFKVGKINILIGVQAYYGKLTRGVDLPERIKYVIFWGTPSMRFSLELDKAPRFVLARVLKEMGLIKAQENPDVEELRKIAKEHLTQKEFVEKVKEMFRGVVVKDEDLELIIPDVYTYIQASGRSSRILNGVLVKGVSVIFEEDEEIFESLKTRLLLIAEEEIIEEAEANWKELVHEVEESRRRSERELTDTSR

[1] = biological target: T2, rGyr_hel (reverse gyrase helicase-like domain) (Thermotoga maritima, UniProt O51934 59-541)
T2 sequence: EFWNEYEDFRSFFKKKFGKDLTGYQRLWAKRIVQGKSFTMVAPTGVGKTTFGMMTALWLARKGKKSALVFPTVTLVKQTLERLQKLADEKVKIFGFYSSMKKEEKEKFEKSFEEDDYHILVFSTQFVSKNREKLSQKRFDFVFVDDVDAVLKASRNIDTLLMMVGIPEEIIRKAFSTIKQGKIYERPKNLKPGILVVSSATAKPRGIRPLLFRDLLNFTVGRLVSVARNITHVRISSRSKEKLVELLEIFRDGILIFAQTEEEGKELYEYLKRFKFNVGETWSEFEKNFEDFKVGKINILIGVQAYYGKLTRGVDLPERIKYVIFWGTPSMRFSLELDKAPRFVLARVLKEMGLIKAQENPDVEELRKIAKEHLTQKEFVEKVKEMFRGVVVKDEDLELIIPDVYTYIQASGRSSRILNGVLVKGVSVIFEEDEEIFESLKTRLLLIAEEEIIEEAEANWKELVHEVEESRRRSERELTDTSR

[2] = biological target: T3, rGyr_fl Y851F (full-length reverse gyrase) (Thermotoga maritima, UniProt O51934 1-1104, Y851F)
T3 sequence: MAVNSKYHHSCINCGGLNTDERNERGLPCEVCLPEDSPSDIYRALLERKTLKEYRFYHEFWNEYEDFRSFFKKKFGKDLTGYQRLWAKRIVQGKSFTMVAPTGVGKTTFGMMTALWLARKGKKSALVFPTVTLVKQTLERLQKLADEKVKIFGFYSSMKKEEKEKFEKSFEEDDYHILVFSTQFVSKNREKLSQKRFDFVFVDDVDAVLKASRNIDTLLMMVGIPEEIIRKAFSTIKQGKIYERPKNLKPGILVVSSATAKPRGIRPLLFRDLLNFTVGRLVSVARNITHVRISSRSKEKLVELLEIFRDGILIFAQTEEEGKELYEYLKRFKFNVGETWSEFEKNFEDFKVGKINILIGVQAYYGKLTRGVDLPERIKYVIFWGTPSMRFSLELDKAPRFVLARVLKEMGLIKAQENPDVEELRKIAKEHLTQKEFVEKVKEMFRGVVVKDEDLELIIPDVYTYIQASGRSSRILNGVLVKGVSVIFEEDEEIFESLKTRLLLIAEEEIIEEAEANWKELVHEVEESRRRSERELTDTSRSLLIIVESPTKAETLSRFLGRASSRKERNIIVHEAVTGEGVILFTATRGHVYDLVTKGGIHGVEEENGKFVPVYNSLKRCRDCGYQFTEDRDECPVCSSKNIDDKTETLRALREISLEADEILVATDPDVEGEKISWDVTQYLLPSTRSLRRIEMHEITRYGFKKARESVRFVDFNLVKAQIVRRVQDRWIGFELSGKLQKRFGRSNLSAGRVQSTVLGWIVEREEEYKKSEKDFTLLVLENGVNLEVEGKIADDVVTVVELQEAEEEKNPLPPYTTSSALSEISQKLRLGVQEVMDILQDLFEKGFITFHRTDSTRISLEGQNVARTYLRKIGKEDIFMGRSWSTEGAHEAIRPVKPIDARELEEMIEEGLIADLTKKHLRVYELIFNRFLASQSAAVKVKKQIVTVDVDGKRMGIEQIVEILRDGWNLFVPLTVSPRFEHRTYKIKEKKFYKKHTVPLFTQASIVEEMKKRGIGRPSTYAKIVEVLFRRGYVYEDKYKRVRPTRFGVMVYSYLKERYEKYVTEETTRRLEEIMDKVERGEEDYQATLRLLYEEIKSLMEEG

[3] = biological target: T2, rGyr_hel (reverse gyrase helicase-like …); remark: listed apart in the source

B1: 60-base ssDNA (ssDNA)
DNA: AAGCCAAGCTTCTAGAGTCAGCCCGTGATATTCATTACTTCTTATCCTAGGATCCCCGTT
For B1, the Kd (rGyr_hel K106Q) was 180 ± 30 nM, the Kd [1] was 460 ± 30 nM and the Kd [2] was 49 ± 12 nM. It also gave a Kd [3] of 380 ± 50 nM.
